Experimental findings from a protein production outcome set (Wang et al. 2014) are described below.

A short description of the series: label from the status in PepcDB records.

Consider “MFKKEIILGILCLFAACHSNDEIIEEQESPKNEQQEPKARVDIILSHEEQAMSESTNDFAFQLFKQVCVSENRKTNIFISPFSVSLCLSMSANGANGNTLTEIKKVLGFSSSSMDEVNTYNQKLMSSLLNIDNTTQIGIANSVWINQGFVVKNTFIDINKLKYNAWVESLDFSSASAIATINAWCARNTENRLVDIMDEISPEARLILINALYFKGKWTNPFSKEVTKNDFFTNIDGEQVKVDMMCQEESFRCMNNEKFAIAEFPYGNEAFSMVVVLPVENSSLEESLLWLSNDAWKQCETQMSYQKLQVKMPKFSFKYQKPLNSDMSVLGMKDAFILGLADFRNISASENLYLSSLEQFTYLEVNEEGTESAAITTEVPATSTGDDKDIIHFFMDRPFIFMIKEKSTGLILFMGQVTKL”, for which the protein production entry is “failed”. The result for “MFKKRLNKDKINDCYTWEEELPDGSYDMGFHGNLNHMEKGKSGYVTHKQLDKKLEVFKQDLLVELSEKFVTKEEFRAQGKQIKELQIEQKAQGKTLQLILEALQGINKRLDKLESKLEHHHHHH” reads “not failed”; that for “MFKKTFSMICCVIFLQGCSQEQEVKKEMTNMETALLAATEKNETNTVISLLKQGANINATDNQGRTPLMIATYKNDVKTAKALIKAGADVNIQDDMKNNPFLYAGAEGYLDILKLTINAGADPTITNRYGGTALIPASEHGYIDVIKELLTRTNIDVNHVNNLGWTALMETIVLSNGNETQQQVIRLLIEHGADVNIPDNDGVTPLEHARAHNFAEIEKILLEGNK”, “failed”; that for “MFLIILIKSLIIGGLVGVGVGAGAARMFHAPTTQGMGAFRTLGELNSCEGDPASHFSFGLGFFFNAWASSVAAGSFTQDVDHRIIPNWGAAALMLKNRNVGETLHDPKKMAISCGIIGMIVVAFLNLTASSVPEALQVTAVKVLVPAANLLVNTVMPVIFWLAAIDAGKKSGFWATIFGGAAQLIMGNAVPGLVLGILIGKGVEESGWNRVTKVMMVAIVALFVLSGFFRGFDMKMIESFHLTVPNWLDMIHNSLSGK”, “failed”.

With “MFLSDPLPAGGDPVTRLTRYVTRELLPPLLAGTLLFTAILSFGYFFISSQWLSGVPVSLIARWIGYQLPDTLVKVLPMAVVLMTVVAFGRMNTERELVAVQAGGIGLGRVTRPAAVVGLLVTALSVWLSLWVAPRANVETRGLYWDALTGAGLSQLVGKTVDLGQGLTLAMQGYDAGARQMQGVRVEKWDKDNFRQGMVVFADAGKFEGNQLSLTGYQVYRVDYAAAAALSGVADNDPAAFREAVQKVFPLVQVPEDRNAALNLDTGLSRKQTLAQYADAIGADAEGWPELITKLTAPGVPQSERDAARVNLNRKLALPFANLVLVLAALPFALRFGRTLGVSLGVALVIAVAYYLLFSVGLTLAGLLPGLPELGVWLANIVFALGGLWLLRRA”, the protein production entry is on record as “failed”.

For the sequence “MFLSGAHSFNANCRRQRQRVFGAPRVPLGESKICCVWAQHFLPCSRVYDPMTSKVSSPTLLEALSSDFLACKICLEQLHTPKTLPCLHTYCQDCLAQLDIGGQVRCPECRETVPVPPEGVAAFKTNFFVNGLLDLVKARAAGDSHSGKPTCALCPLVGGKSSGGPATARCLDCADDLCQACADGHRCSRQTHKHRVVDLVGYRAGWYDEEARERQASQCPQHPGETLCFLCQPCSQLLCKDCRLGPHIDHPCLPLAEAVRSRKPGLEELLAGVDSNLLELEATRVAEKEALALLREQAASVGTQVEEAAERILKSLLAQKQEVLGQLRALVEAAEEATRERLTKIESQEQVAKAAAAFARRVLSLGLEAEILSLEGAITQRLRQLQDTPWTSGPTRCVLPQLELHPGLEDKNCHLLRLSFEEPRQSQKDGGKVGAGTQGGDEAQSQGDDRTKTGKQGGAQPLIPKEGKAQNPPEDDEVLIERGNRPNKKKKCKGRGKSVSREPSPILRPNLEGSGPLPRPVFSWSFPTRMPGDKRSPRITGLCPYGPQEILVADEQNRVLKRFSLNGDYKGTVPVPEGCSPCSVAALQNAVAFSANAKLYLVSPEGEVQWRRSLSLAQSSHAVAAMPCGDRVAVSVAGHVEVYKKEGSLATRFIPGGKASRGQRALVFLTTSPQGNFVGSDWQQNSVVFCDGLGQVIWEYKGPGLHGCQPGSVSVDKKGYIFLTLREVNKVVILDPKGSLLGDFLTAYHGLEKPRVTTMVDGKYLVVSLSNGTIHVFRVRFPDS”, the protein production entry is “failed”. The result for “MFLTLSGADMSALIKGSGPHHVVVLNGWFGHAAGWGAFADYLDLGNYTWHFWDYRGYGNRKDDAGEFTLEEISADIVAYIDSIEAEKVSILGHSMGGVFMQKVLADSATPIASLVGISAVAAAGTPFDEDSRKLFTSAGHNPDSRRAIIDFTSGSRQPAAWLDDLTDSTVQNSTPEAVEKYFFAWADCNFAADLGTQDLPVYILTGDLDPAVTKTAVESAFGPIYQNLTVEELHDVGHYAIFEHPLGLAARVLRFLDAV” reads “failed”; that for “MFLTVKLLLGQRCSLKVSGQESVATLKRLVSRRLKVPEEQQHLLFRGQLLEDDKHLSDYCIGPNASINVIMQPLEKMAL”, “failed”. Take “MFMIKVITPETNHPKEGGILSALVSIYNCTIHIRKPRFTADQYKKYLHDHNQLLSHFVLHEHHSLAKEFPVMGVHLKELDRINPAQVHPDIKIISTSIHSIADAGNLSHPFEYIFYSPLFQSISKENYGTNNSLADLKKTVSELKEQTGIPIIGLGGIYEANIDLVKKSGFDGAALLGAVWVQSDPLAAFGRIASMILEHHHHHH”: the protein production entry is listed as “failed”.

For the sequence “MFNDWRRVLALSGKALGAILFCEAVGLLAAWVTQTSVTTWYPTLTKPSFTPPNWVFAPAWTTLYALMGVAAFLVWRCGPDRTRVRTALTAFGLQLAANAGWSFAFFGARSPALGLVVILGLWGLLAWTMDRFFRVRPVAGWLLVPYLAWVTYALALNAAIWGLN”, the protein production result is on record as “failed”. As to “MFNNKQKQLVIILISLLLTFTSQASLASDTTILNEIINPQLIHIYEWETLSVYEKENVSQKPANWDSAESFYGSTRLSLLGEERFYRAKFTIGWHHRTRNLAISVGPLKGTDEVYINGFRVDDSGSGDYDLFFQNSYRVYRLPRNKTWFSWFNYTKENELLIKLSSSKRGQVLDSDYVEIGDYETLALKSRDFDSTIKTSQGSAIALLFMLILFIIFLHVNQYNKKSNTLFGFFIFYLSLSIASTSLFLNGPEYDGELLLSLSACLDLVSLVVFIKIVSDKFDLNISHYKRNEKSIKIFGTVSVLCILIFSDIFFAQKWFNLIIYIVMLLVVISTIHQLVIGRNIGGANYSIVSALMIMFLGVAFNGLWGGNSWPISPYHIGAILSSIFLLYSIAQDFKKMTLSMHAMSSRLVNIREIERARLTRDIHDGVGQGLATIRLFITMNINNFEPQLGISLKNEVDQTSNTLKSVIRNLKPIEMDDGNPSEAIIELARHLCEIAQIEMKVIHSDKADMNTENAYQLYRIGQEALNNSIKHSCCTLITIDIQRDRDRLIMSISDNGKGIKKQVENLGYGLSSMQERALLIGGQLRINNAIDSGVQVFLEVPIND”, the protein production result is on record as “failed”.

As for “MFPHLALLNAHKRMHTDGEQQQQQQHNAQAGGDSIAVVSAQGLVQAQNIIGNGQMGQIQIVSSDTLEPVQQSVMQQQQHESKASKCINCGSSMLQQSKRKGPKQVRCESCMQAEQTAQQQQQLFVAQDG”, the protein production entry is recorded as “failed”. The result for “MFQPHLPVRLPCYDLAPITSFTLGRSLRLRTSGTPGFHGLTGGVYKARERIHRAMADARLLANPASRSRVADFDPN” reads “failed”. The result for “MFQTQFSPINFRETKIIKANYKRFHEIRAKVQTETNDALNENEISAIKKSGFRGHVDISYKSSASFSPLPLQQYFTTMKKIVMRKLRSPVSHCMLVTKCQTTLQIGYIDWMESKSLSNIID” reads “failed”; that for “MFRKLAAECFGTFWLVFGGCGSAVLAAGFPELGIGFAGVALAFGLTVLTMAFAVGHISGGHFNPAVTIGLWAGGRFPAKEVVGYVIAQVVGGIVAAALLYLIASGKTGFDAAASGFASNGYGEHSPGGYSMLSALVVELVLSAGFLLVIHGATDKFAPAGFAPIAIGLALTLIHLISIPVTNTSVNPARSTAVAIFQGGWALEQLWFFWVVPIVGGIIGGLIYRTLLEKRD”, “not failed”. The result for “MFRRLILRQAAAVAAESKIACHHTVHGFEQRRGLHSRNEKAMEYVAKGWSAIKEVERVIDYCELNDRRLIPLLRGAKENFELALEADNLNTHARYWLSKLHLKYHVPGACKAVGAALLVEAADMGNADAQYELGCRLRVENDHVQSDQQAFHYIENAVDQLHPGALYLLGIVYLTGDCVKQDVDSAIWCFHRASEKGHAGAAIAYGSLLLRGVQVPESLTKLNVVGVSPPKRARKNLENPEMNPLEMAKEQFQIAARAGCDLGLKWLQRVEQEEKLLMREQDNECAYV” reads “failed”.
